This passage reports ACh rel % Inh @ 100 µM and Inh ACh rel IC50 results from patent US20030092613A1, “Alpha7 nicotinic receptor peptides as ligands for beta amyloid peptides” (priority 2000, published 2003).

For the experiment, the target named is β-amyloid1-42 (UniProt P05067). The experiment can be described thus: cell-based or functional assay.

On to (Ac)FYEC (peptide), for which the ACh rel % Inh @ 100 µM came out at 54% and the Inh ACh rel IC50 is less than 10 µM.
For (Ac)YECC-amide (peptide) the same measures were 62% and less than 10 µM.
